Results reported in PMC9894173 (Proceedings of the National Academy of Sciences of the …, 2022).

Biological target: His6-FLAG-MBP-tagged DHX15 (aa 113–795) (human, UniProt O43143 113-795)
Assay: co-IP

His6-FLAG-MBP-tagged DHX15 (aa 113–795), sequence (O43143 113-795): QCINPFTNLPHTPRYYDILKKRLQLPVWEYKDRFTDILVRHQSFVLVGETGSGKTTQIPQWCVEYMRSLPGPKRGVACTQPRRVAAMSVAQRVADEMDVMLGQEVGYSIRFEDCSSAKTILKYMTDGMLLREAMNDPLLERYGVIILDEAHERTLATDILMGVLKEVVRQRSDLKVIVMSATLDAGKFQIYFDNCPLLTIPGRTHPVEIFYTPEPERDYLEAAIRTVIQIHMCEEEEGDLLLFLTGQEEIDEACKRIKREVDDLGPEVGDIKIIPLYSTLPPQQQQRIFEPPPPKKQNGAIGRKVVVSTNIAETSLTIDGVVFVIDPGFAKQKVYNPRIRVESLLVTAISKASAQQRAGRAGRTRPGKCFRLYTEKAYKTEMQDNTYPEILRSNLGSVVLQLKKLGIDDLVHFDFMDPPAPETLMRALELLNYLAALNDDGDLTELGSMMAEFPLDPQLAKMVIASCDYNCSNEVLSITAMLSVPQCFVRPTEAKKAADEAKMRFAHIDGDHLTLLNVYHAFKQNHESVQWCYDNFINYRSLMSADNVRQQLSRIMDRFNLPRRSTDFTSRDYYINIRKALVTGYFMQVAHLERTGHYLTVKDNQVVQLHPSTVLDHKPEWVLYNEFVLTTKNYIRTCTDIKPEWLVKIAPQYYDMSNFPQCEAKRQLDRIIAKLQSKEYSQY

B1: His6-HA-tagged SUGP1 WT (full length) (natural protein)
chain: MSLKMDNRDVAGKANRWFGVAPPKSGKMNMNILHQEELIAQKKREIEAKMEQKAKQNQVASPQPPHPGEITNAHNSSCISNKFANDGSFLQQFLKLQKAQTSTDAPTSAPSAPPSTPTPSAGKRSLLISRRTGLGLASLPGPVKSYSHAKQLPVAHRPSVFQSPDEDEEEDYEQWLEIKVSPPEGAETRKVIEKLARFVAEGGPELEKVAMEDYKDNPAFAFLHDKNSREFLYYRKKVAEIRKEAQKSQAASQKVSPPEDEEVKNLAEKLARFIADGGPEVETIALQNNRENQAFSFLYEPNSQGYKYYRQKLEEFRKAKASSTGSFTAPDPGLKRKSPPEALSGSLPPATTCPASSTPAPTIIPAPAAPGKPASAATVKRKRKSRWGPEEDKVELPPAELVQRDVDASPSPLSVQDLKGLGYEKGKPVGLVGVTELSDAQKKQLKEQQEMQQMYDMIMQHKRAMQDMQLLWEKAVQQHQHGYDSDEEVDSELGTWEHQLRRMEMDKTREWAEQLTKMGRGKHFIGDFLPPDELEKFMETFKALKEGREPDYSEYKEFKLTVENIGYQMLMKMGWKEGEGLGSEGQGIKNPVNKGTTTVDGAGFGIDRPAELSKEDDEYEAFRKRMMLAYRFRPNPLNNPRRPYY
Question: Does B1 bind?
Answer: binds
